Test results as given in the supplement of paper PMC10567573.
± gives the standard deviation.

Assay: protein stability index of a GFP-peptide fusion (GPS, HEK-293T) (PSI 1-6); higher = more stable
[1] = treatment: DMSO, c terminus: a fixed tail appended
[2] = treatment: MLN4924 1 uM, 8 h, c terminus: a fixed tail appended
[3] = treatment: DMSO, c terminus: native
[4] = treatment: MLN4924 1 uM, 8 h, c terminus: native
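Also: 24-mer peptide tiles fused after GFP, lentivirally expressed, FACS-sorted into six equal bins by GFP/DsRed ratio, decoded by Illumina sequencing, PSI is the read-weighted mean bin number.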

LVNHVNIRLQAELEEGENPVPAFQ [SMG5]
protein stability index [1]: 4.04 ± 0.091
protein stability index [2]: 4.07 ± 0.17

LVQLDDYRFASAGDDGIVVVWNAQ [WDR41]
protein stability index [1]: 2.64 ± 0.28
protein stability index [2]: 2.87 ± 0.31

LVQLEDEITTLRQVLSAKERHLVE [TPD52L1]
protein stability index [1]: 2.85 ± 0.16
protein stability index [2]: 3.04 ± 0.44

LWGRTQEEAEELAKEMSVPFYTSR [GFOD1]
protein stability index [1]: 3.4 ± 0.18
protein stability index [2]: 3.61 ± 0.32

LYPALKGVNTVFHCASPPPSSNNK [NSDHL]
protein stability index [1]: 3.47 ± 0.064
protein stability index [2]: 3.52 ± 0.16

LYSRTGDIVEFVCKSGYHPTKSHS [CFHR2]
protein stability index [1]: 2.15 ± 0.16
protein stability index [2]: 2.45 ± 0.4

LYSSSLGGGVATSPMLIVFHGKYS [GLT8D2]
protein stability index [1]: 2.38 ± 0.48
protein stability index [2]: 2.44 ± 0.52

LYVLKGGYKEFFMKCQSYCEPPSY [CDC25A]
protein stability index [1]: 2.62 ± 0.68
protein stability index [2]: 2.65 ± 0.27

MAAAQEADGARSAVVAAGGGSSGQ [CLPTM1]
protein stability index [1]: 5.36 ± 0.26
protein stability index [2]: 5.29 ± 0.2

MADKAKPAKAANRTPPKSPGDPSK [TPPP]
protein stability index [1]: 5.22 ± 0.25
protein stability index [2]: 5.39 ± 0.15

MAERLEDSVLKGMQAASSKMVSAE [SDE2]
protein stability index [1]: 4.54 ± 0.36
protein stability index [2]: 4.55 ± 0.24

MAGAIAQGLIRAGKVEAQHILASA [PYCR3]
protein stability index [1]: 2.18 ± 0.18
protein stability index [2]: 2.31 ± 0.32

MARVAWGLLWLLLGSAGAQYEKYS [P3H4]
protein stability index [1]: 3.18 ± 0.83
protein stability index [2]: 3.16 ± 0.48

MASRAGPRAAGTDGSDFQHRERVA [JAGN1]
protein stability index [1]: 4.67 ± 0.31
protein stability index [2]: 4.7 ± 0.13

MASSAASSEHFEKLHEIFRGLHED [VTI1B]
protein stability index [1]: 4.29 ± 0.16
protein stability index [2]: 4.28 ± 0.1

MAYDQFLAICRPLTYSTRMSQTVQ [OR3A1]
protein stability index [1]: 2.25 ± 0.33
protein stability index [2]: 2.21 ± 0.29

MDPGWGQRDVGWAALLILFAASLL [C2CD2L]
protein stability index [1]: 2.34 ± 0.24
protein stability index [2]: 2.26 ± 0.31

MFSFNMFDHPIPRVFQNRFSTQYR [UFD1]
protein stability index [1]: 2.13 ± 0.17
protein stability index [2]: 2.22 ± 0.22

MGSLSSRVLRQPRPALAQQAQGAR [GMCL1]
protein stability index [1]: 4.46 ± 0.28
protein stability index [2]: 4.56 ± 0.18

MGSQGSPVKSYDYLLKFLLVGDSD [RAB40C]
protein stability index [1]: 2.29 ± 0.28
protein stability index [2]: 2.37 ± 0.099

MHANVEDRGIKGDITPLMAAANGG [ANKRD17]
protein stability index [1]: 4.58 ± 0.14
protein stability index [2]: 4.67 ± 0.086

MHLNFMDEKDRIITAFYNEARARA [DNAJC4]
protein stability index [1]: 2.92 ± 0.35
protein stability index [2]: 2.98 ± 0.19

MLNEPLVREIVKECSNIPLSQPQQ [GAN]
protein stability index [1]: 3.85 ± 0.2
protein stability index [2]: 3.95 ± 0.077

MLSLKKYLTEGLLQFTILLSLIGV [NFE2L1]
protein stability index [1]: 3.33 ± 0.27
protein stability index [2]: 2.82 ± 0.47

MMLFNDGTFQVNFYHDHTKIIICS [PLK2]
protein stability index [1]: 2.79 ± 0.83
protein stability index [2]: 2.88 ± 0.86

MPCLLMELRRDSSESQLASTESDK [C18orf25]
protein stability index [1]: 4.73 ± 0.05
protein stability index [2]: 4.55 ± 0.22

MRGRIYLEPPTMRKKRLLDRKVLL [GOLPH3L]
protein stability index [1]: 2.34 ± 0.27
protein stability index [2]: 2.47 ± 0.29

MSELFLHTPSDTGVSFQAISSMAD [PKD2L1]
protein stability index [1]: 3.41 ± 0.15
protein stability index [2]: 3.61 ± 0.27

MSFVAGVIRRLDETVVNRIAAGEV [MLH1]
protein stability index [1]: 2.85 ± 0.35

MSGGGVIRGPAGNNDCRIYVGNLP [SRSF1]
protein stability index [1]: 2.85 ± 0.29
protein stability index [2]: 2.96 ± 0.51

MSIHIVALGNEGDTFHQDNQPSGL [RHOBTB3]
protein stability index [1]: 2.51 ± 0.25
protein stability index [2]: 2.52 ± 0.4

MSRQFTCKSGAAAKGGFSGCSAVL [KRT71]
protein stability index [1]: 2.59 ± 0.35
protein stability index [2]: 2.18 ± 0.43

MSVAIRKRSWEEHVTHWMGQPFNS [DLC1]
protein stability index [1]: 2.41 ± 0.65
protein stability index [2]: 2.43 ± 0.18

MTLEEFSAGEQKTERMDKVGDALE [GADD45A]
protein stability index [1]: 5.28 ± 0.15
protein stability index [2]: 5.36 ± 0.18

MVILISIVIFCLETLPELKDDKDF [KCNA1]
protein stability index [1]: 3.03 ± 0.71
protein stability index [2]: 2.72 ± 0.52

MVLLTMIARVADGLPLAASMQEDE [SEC22B]
protein stability index [1]: 3.26 ± 0.71
protein stability index [2]: 2.94 ± 0.2

MVVSREEVELAYQEAMFNMATLNR [SEPHS2]
protein stability index [1]: 2.93 ± 0.29
protein stability index [2]: 3.03 ± 0.2

MWWRGCKIKAIMALVAAILLLVII [VAMP4]
protein stability index [1]: 2.89 ± 0.096
protein stability index [2]: 2.855 ± 0.027

MYDNELWAPASEGLKPGPEDGPGK [SERTAD1]
protein stability index [1]: 4.99 ± 0.46
protein stability index [2]: 5.25 ± 0.22

NAGKVNLPKELPADAVNLTIPASL [PLAGL1]
protein stability index [1]: 4.4 ± 0.25
protein stability index [2]: 4.43 ± 0.22

NARAQQRAAAQQRRSFLNAHHRSG [GNAS]
protein stability index [1]: 4.28 ± 0.32
protein stability index [2]: 4.36 ± 0.14

NASRSLYPDAEDPQLGLDGPGEPD [PSD2]
protein stability index [1]: 5.4 ± 0.2
protein stability index [2]: 5.51 ± 0.22

NCLPKHLLHSVNQRFGSNNTSGS [KLHDC2]
protein stability index [3]: 2.69 ± 0.33
protein stability index [4]: 2.99 ± 0.28

NDADKAINTLNGLKLQTKTIKVSY [ELAVL3]
protein stability index [1]: 2.96 ± 0.23
protein stability index [2]: 3.11 ± 0.25

NDPSGSEEADFLSAETGSPRLTMH [IRX6]
protein stability index [1]: 5.16 ± 0.083
protein stability index [2]: 5.2 ± 0.057

NDSGICMSPESYLGSPQHSPSTRG [ATF4]
protein stability index [1]: 4.53 ± 0.29
protein stability index [2]: 4.86 ± 0.15

NFEKLRLSLQDQVDTLTFQSQSLR [MTUS2]
protein stability index [1]: 3.01 ± 0.22
protein stability index [2]: 3.14 ± 0.37

NHLLESMPLREGSSFQDLLGDALA [HES6]
protein stability index [1]: 3.34 ± 0.31
protein stability index [2]: 3.4 ± 0.31

NILLKNLVTIARKASLWQFLSSEK [TRIM43]
protein stability index [1]: 2.17 ± 0.42
protein stability index [2]: 2.13 ± 0.18

NIPMETEETHLEETTESQQNGEEG [SMARCE1]
protein stability index [1]: 5.39 ± 0.5
protein stability index [2]: 5.6 ± 0.21

NKEYIKRLLMSQADKMTAEEVDQM [MYL5]
protein stability index [1]: 4.53 ± 0.28
protein stability index [2]: 4.48 ± 0.23

NKINAGMYILSPAVLRRIQLQPTS [GMPPB]
protein stability index [1]: 2.24 ± 0.24
protein stability index [2]: 2.28 ± 0.38

NKLPEGVPQPARMPYISDKHPRQT [KLHL20]
protein stability index [1]: 4.69 ± 0.12
protein stability index [2]: 4.77 ± 0.15

NKRKTYTESYIARPDGDCASSLNG [ZC2HC1A]
protein stability index [1]: 4.18 ± 0.23
protein stability index [2]: 4.44 ± 0.3

NKTLLRLRLRKERVSDVQKVLQGG [PKD2L1]
protein stability index [1]: 2.65 ± 0.23
protein stability index [2]: 2.94 ± 0.35

NLGGGDPKGWRQLAQEAEAWLNYP [OAS1]
protein stability index [1]: 3.22 ± 0.26
protein stability index [2]: 3.37 ± 0.26

NNKKWILSASKDRTMRLWNIEEID [WDR88]
protein stability index [1]: 2.66 ± 0.12
protein stability index [2]: 2.86 ± 0.44

NNWPPLPSFCPVQPCFFQDISMEI [SCAMP3]
protein stability index [1]: 2.4 ± 0.53
protein stability index [2]: 2.55 ± 0.5

NPQRQGLLKTPWRAASAMQFFTKG [GCH1]
protein stability index [1]: 2.89 ± 0.29
protein stability index [2]: 2.76 ± 0.21

NPYHQPYISRKYFATRPGAIETAM [TPRG1]
protein stability index [1]: 2.22 ± 0.18
protein stability index [2]: 2.52 ± 0.25

NVGRVHRVAKKLQSGLVWTNCWLI [ALDH8A1]
protein stability index [1]: 3.04 ± 0.41
protein stability index [2]: 2.61 ± 0.49

NVVPIHVPPTTENKPKVQCCQNI [RAB11A]
protein stability index [3]: 4.13 ± 0.19
protein stability index [4]: 4.12 ± 0.11

NWVIPAISAVAVALMYRLYMAED [CYB5A]
protein stability index [3]: 3.92 ± 0.12
protein stability index [4]: 4.02 ± 0.19

NYRSFEPILRLLPQGISPVSQHWA [ZER1]
protein stability index [1]: 2 ± 0.27
protein stability index [2]: 2.09 ± 0.26

PAADGARAPRSPGQVTPRGLRLRL [C6orf223]
protein stability index [1]: 3.96 ± 0.12
protein stability index [2]: 3.97 ± 0.19

PAASNSSDLFDLMGSSQATMTSSQ [CLINT1]
protein stability index [1]: 5.06 ± 0.16
protein stability index [2]: 5.02 ± 0.17

PAEEAGPEGGLEEPDALDDSLTSL [FOXJ1]
protein stability index [1]: 5.6 ± 0.23
protein stability index [2]: 5.56 ± 0.34

PALETQPQGDEEDIASRYPTLWTE [SMOC2]
protein stability index [1]: 4.78 ± 0.34
protein stability index [2]: 4.85 ± 0.54

PAQSHTLQANDVFHKQQWFNCIRA [NET1]
protein stability index [1]: 2.71 ± 0.38
protein stability index [2]: 2.71 ± 0.3

PARDGVEASAEGPRAVFVLLEERR [TFE3]
protein stability index [1]: 4.26 ± 0.27
protein stability index [2]: 4.23 ± 0.073

PAVPEEILKRLLKEQHLWDVDLLD [DLC1]
protein stability index [1]: 2.97 ± 0.55
protein stability index [2]: 3.12 ± 0.34

PCATVSVFPGARLLTIGDANGEIQ [CARM1]
protein stability index [1]: 3.31 ± 0.38
protein stability index [2]: 3.28 ± 0.16

PDFYKQSSPNLQVSSDGTLKYMEV [PCDHGC5]
protein stability index [1]: 3.4 ± 0.16
protein stability index [2]: 3.39 ± 0.45

PDGKEMAEEYDEKTSELLVRKWRV [DPCD]
protein stability index [1]: 4.31 ± 0.23
protein stability index [2]: 4.41 ± 0.11

PDHQVPYGHDYPRAAYQQVIQPAL [TRAF3IP2]
protein stability index [1]: 3.48 ± 0.29
protein stability index [2]: 3.56 ± 0.24

PGAYYPYERTLGQYQYERYGAVEL [IRX6]
protein stability index [1]: 2.3 ± 0.33
protein stability index [2]: 2.41 ± 0.21

PGITRVYSIGRSVEGRHLYVLEFS [CPN1]
protein stability index [1]: 3.12 ± 0.91
protein stability index [2]: 2.81 ± 0.63

PGLSQGPGKETLESALIALDSEKP [EHMT1]
protein stability index [1]: 5.33 ± 0.28
protein stability index [2]: 5.31 ± 0.18

PGPPGSSRPVKGQVVTVHLQTSLE [FKBP8]
protein stability index [1]: 3.5 ± 0.48
protein stability index [2]: 3.53 ± 0.22

PGSTRPHRSACSSAAVRGHPRALP [HAGHL]
protein stability index [1]: 3.19 ± 0.23
protein stability index [2]: 3.15 ± 0.24

PIDQGPAIGRVRVLEEQLVKAKEQ [FUT8]
protein stability index [1]: 5 ± 0.16
protein stability index [2]: 5.09 ± 0.27

PIMSGQGLAGFFASVAMICAIASG [SLC29A1]
protein stability index [1]: 3.12 ± 0.21
protein stability index [2]: 3.13 ± 0.48

PIPHVFSAGTGSAILPHFHHAFR [PLAGL1]
protein stability index [3]: 3.04 ± 0.22
protein stability index [4]: 3.17 ± 0.16

PKSPATPKQLRLINQPLPDLKNVK [MAP2]
protein stability index [1]: 4.51 ± 0.27
protein stability index [2]: 4.793 ± 0.034

PNDEHWKALSRKSTSFRVYIMAFD [FBXO33]
protein stability index [1]: 2.11 ± 0.52
protein stability index [2]: 2.27 ± 0.45

PNDEVHPLLGVKGDGKSKKKQAGR [RBBP5]
protein stability index [1]: 5.35 ± 0.27
protein stability index [2]: 5.2 ± 0.35

PPETVQNWIELLSGETWNPLKLHY [GOLPH3]
protein stability index [1]: 2.17 ± 0.24
protein stability index [2]: 2.12 ± 0.21

PPGPDRLPSNLVQYYDDEKKTWKI [KLHL14]
protein stability index [1]: 4.87 ± 0.082
protein stability index [2]: 4.7 ± 0.33

PPKQAQKEQRKQMKGRGQLEKPPA [TBC1D10A]
protein stability index [1]: 5.26 ± 0.18
protein stability index [2]: 5.29 ± 0.21
